Measurements reported in the supplement of paper PMC10724198.
± gives the standard deviation of the averaged measurements.

tested on: Saccharomyces cerevisiae; experiment: protein stability index of tFT-peptide fusion (C-terminal peptide) (PSI (0-1 scale)); higher = more stable (slower turnover); conditions: genetic background: wild type; temperature: 30 C
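Note: PSI is a weighted mean of sequencing reads over stability bins, variants kept only with over 10 reads, mCherry proximal and sfGFP distal, peptide attached via GGGS linker.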

Going from QFSSPPLPLLSP to QGCSRHIRTGKK, the protein stability index falls from 0.629 ± 0.035 to 0.5741 ± 0.0037.

QGGRGGRHVTDI and QGIKKKKEKERR are within error of each other in protein stability index: 0.688 ± 0.022 for the first, 0.768 ± 0.14 for the second.

QGQAAHEHFHGR and QGREREAGAEVM are within error of each other in protein stability index: 0.654 ± 0.042 for the first, 0.699 ± 0.03 for the second.

First: QGRTWGGCWGRG
Second: QGSKQKIISAAT
The protein stability index of the first is lower: 0.649 ± 0.012 for the first, 0.6807 ± 0.0064 for the second.

Going from QIERSRIAYLST to QIQRSGGGGHCG, the protein stability index rises from 0.6933 ± 0.0027 to 0.739 ± 0.0028.

Going from QITSHRVISRLV to QKIREKKKRKKL, the protein stability index rises from 0.546 ± 0.037 to 0.622 ± 0.015.

QKKIIRKRKKNR and QKKKKKKVQKKQ are within error of each other in protein stability index: 0.666 ± 0.012 for the first, 0.6702 ± 0.0054 for the second.

First: QKKKKLAYVGKR
Second: QKKKKNKKQKTE
The protein stability index of the first is higher: 0.659 ± 0.012 for the first, 0.599 ± 0.021 for the second.

QKNETNQWKGKK and QKQINQKKRTMK are within error of each other in protein stability index: 0.672 ± 0.032 for the first, 0.649 ± 0.055 for the second.

First: QKREEPQNKSQD
Second: QKSCHIADGREL
The protein stability index of the first is higher: 0.72 ± 0.017 for the first, 0.671 ± 0.022 for the second.

Going from QLEGQGISFRVL to QLENQRGWDRKI, the protein stability index falls from 0.785 ± 0.065 to 0.656 ± 0.038.

QLHGWMTRNPLL and QLRPPHRTLHLP are within error of each other in protein stability index: 0.746 ± 0.051 for the first, 0.698 ± 0.028 for the second.

First: QLSTSGLTTTAW
Second: QLYGHNRRNQGL
The protein stability index of the first is higher: 0.707 ± 0.029 for the first, 0.611 ± 0.046 for the second.

QMSHTGPTTIQS and QNERRLPVGSYA are within error of each other in protein stability index: 0.695 ± 0.023 for the first, 0.696 ± 0.06 for the second.

QNGAEESVSVGT and QNIGPKEESVLA are within error of each other in protein stability index: 0.662 ± 0.042 for the first, 0.682 ± 0.035 for the second.

QNLYLSFLRIKL and QNQILNKKVIFK are within error of each other in protein stability index: 0.624 ± 0.0088 for the first, 0.681 ± 0.056 for the second.

Going from QPGDVWEFGVLL to QPGTPLSPPPSP, the protein stability index falls from 0.73 ± 0.027 to 0.49 ± 0.019.

QPKEGGRPKKKE and QPRLPLPLSSPV are within error of each other in protein stability index: 0.675 ± 0.035 for the first, 0.611 ± 0.071 for the second.

First: QPTRADLEAPPR
Second: QQDHRSHAHRRL
The protein stability index of the first is lower: 0.6858 ± 0.0065 for the first, 0.7047 ± 0.0013 for the second.

First: QQPPSSGTPDNH
Second: QRNPQNKDRVQD
The protein stability index of the first is higher: 0.703 ± 0.027 for the first, 0.663 ± 0.004 for the second.

Going from QRRGAPTPPACL to QRVWGFRSVFVR, the protein stability index falls from 0.748 ± 0.011 to 0.532 ± 0.035.

QRWKEGRGHSRQ and QSGLAGIPIPKN are within error of each other in protein stability index: 0.686 ± 0.017 for the first, 0.681 ± 0.078 for the second.

QSKFNKFPIVET and QSPMTTGASERH are within error of each other in protein stability index: 0.656 ± 0.046 for the first, 0.623 ± 0.066 for the second.

QSPSALAEGPDD and QSRAQTFGTSIS are within error of each other in protein stability index: 0.641 ± 0.099 for the first, 0.668 ± 0.013 for the second.

QSYRGIGFRTTM and QTGPPDPPLSPP are within error of each other in protein stability index: 0.607 ± 0.049 for the first, 0.643 ± 0.014 for the second.

QTHFRPDYALDW and QTTKEQQKKSYK are within error of each other in protein stability index: 0.753 ± 0.064 for the first, 0.665 ± 0.053 for the second.

QVILQHSLGLLD and QYGARNHPPTTK are within error of each other in protein stability index: 0.707 ± 0.014 for the first, 0.742 ± 0.063 for the second.

Going from QYKRFYGSLVNG to QYLKTKKEGKEF, the protein stability index rises from 0.608 ± 0.047 to 0.698 ± 0.024.

RAAFNPCYTIDF and RAARGGRSGTRV are within error of each other in protein stability index: 0.729 ± 0.025 for the first, 0.643 ± 0.097 for the second.

RAARVSVVAYPF and RAAVTDPCNPLL are within error of each other in protein stability index: 0.682 ± 0.0094 for the first, 0.693 ± 0.0094 for the second.

RACDQPSGVCNV and RACGVSMRIKGG are within error of each other in protein stability index: 0.669 ± 0.038 for the first, 0.695 ± 0.033 for the second.

RACLDRNNLDLG and RADQGGVVNGEG are within error of each other in protein stability index: 0.605 ± 0.075 for the first, 0.732 ± 0.055 for the second.

RAIGREGILHRA and RAKRMVGQTIQE are within error of each other in protein stability index: 0.693 ± 0.094 for the first, 0.765 ± 0.18 for the second.

Going from RALCGWFAKRMI to RALCISCYVALR, the protein stability index falls from 0.637 ± 0.035 to 0.5849 ± 0.00077.

RAPSTPSGRPSL and RARAIGVGSGRG are within error of each other in protein stability index: 0.65 ± 0.051 for the first, 0.698 ± 0.023 for the second.

RARCPGGQIKLH and RARQYTTAMIQS are within error of each other in protein stability index: 0.714 ± 0.2 for the first, 0.469 ± 0.088 for the second.

RARSFINSFSQS and RASRSPIARPGT are within error of each other in protein stability index: 0.671 ± 0.018 for the first, 0.643 ± 0.018 for the second.

RAVFLCVWDYSG and RAVVTGEGESGG are within error of each other in protein stability index: 0.597 ± 0.13 for the first, 0.624 ± 0.0092 for the second.

RCCGRSRLVVPW and RCEGRRIEQSGK are within error of each other in protein stability index: 0.6986 ± 0.0023 for the first, 0.7037 ± 0.0049 for the second.

RCEWRGSCWGGE and RCGCLRVPTGGG are within error of each other in protein stability index: 0.653 ± 0.062 for the first, 0.679 ± 0.075 for the second.

RCGGEWTGGVWR and RCGGGKWGRGAE are within error of each other in protein stability index: 0.845 ± 0.22 for the first, 0.69683 ± 0.00067 for the second.

Compared with RCGPPTAPSLDP, RCPLSFLRCSMA is lower in protein stability index: 0.619 ± 0.008 for the first, 0.586 ± 0.018 for the second.

RCPPLWNPLSPL and RCPPPQPPVRKV are within error of each other in protein stability index: 0.697 ± 0.034 for the first, 0.642 ± 0.1 for the second.

RCPRSPPQPLWT and RCSCNKNGFSSN are within error of each other in protein stability index: 0.731 ± 0.03 for the first, 0.607 ± 0.2 for the second.

RCSLLVVPHSPP and RCYSFTKIRNNL are within error of each other in protein stability index: 0.717 ± 0.04 for the first, 0.718 ± 0.13 for the second.

RDAVLSCARRSQ and RDCSGGRRGLER are within error of each other in protein stability index: 0.752 ± 0.17 for the first, 0.601 ± 0.023 for the second.

RDDDSKDKRTEI and RDLLPRWTWIIW are within error of each other in protein stability index: 0.684 ± 0.065 for the first, 0.76 ± 0.11 for the second.

RDPDTWKLFSLT and RDPPLPRRLPSL are within error of each other in protein stability index: 0.687 ± 0.043 for the first, 0.706 ± 0.058 for the second.

RDRMSEGLGDRS and RDSLEKCLFEVQ are within error of each other in protein stability index: 0.684 ± 0.059 for the first, 0.703 ± 0.05 for the second.

RDSQSGVVVKGT and RDTHSEPKPAQY are within error of each other in protein stability index: 0.726 ± 0.024 for the first, 0.721 ± 0.0088 for the second.

RDVRNRARVKRE was tested, and the protein stability index was 0.693 ± 0.012.
